{"source": "IntAct's records for PubMed 32296183", "key": {"kash5_human KASH5": {"target": "T1, kash5_human KASH5 (UniProt Q8N6L0)", "T1 sequence": "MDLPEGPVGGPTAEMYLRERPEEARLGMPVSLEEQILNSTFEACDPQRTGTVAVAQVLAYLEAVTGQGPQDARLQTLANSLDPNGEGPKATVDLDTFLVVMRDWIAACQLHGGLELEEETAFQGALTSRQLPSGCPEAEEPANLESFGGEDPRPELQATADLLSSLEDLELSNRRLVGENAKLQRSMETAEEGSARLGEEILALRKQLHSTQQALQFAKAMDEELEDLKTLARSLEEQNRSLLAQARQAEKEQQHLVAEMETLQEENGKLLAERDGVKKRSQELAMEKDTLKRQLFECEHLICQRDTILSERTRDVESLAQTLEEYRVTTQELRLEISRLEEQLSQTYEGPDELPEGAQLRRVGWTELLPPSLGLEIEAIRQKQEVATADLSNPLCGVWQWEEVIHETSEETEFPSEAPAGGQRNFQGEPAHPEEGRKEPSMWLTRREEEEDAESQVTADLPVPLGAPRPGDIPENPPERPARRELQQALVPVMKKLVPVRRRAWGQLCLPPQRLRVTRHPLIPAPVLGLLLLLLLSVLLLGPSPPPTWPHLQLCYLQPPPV"}, "gp152_human GPR152": {"target": "gp152_human GPR152 (UniProt Q8TDT2)"}, "cxa8_human GJA8": {"target": "cxa8_human GJA8 (UniProt P48165)"}, "pdz1i_human PDZK1IP1": {"target": "T2, pdz1i_human PDZK1IP1 (UniProt Q13113)", "T2 sequence": "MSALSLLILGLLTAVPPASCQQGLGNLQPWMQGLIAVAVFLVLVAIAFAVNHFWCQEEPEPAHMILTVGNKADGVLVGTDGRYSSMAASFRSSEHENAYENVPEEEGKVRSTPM"}, "amgo1_human AMIGO1": {"target": "T3, amgo1_human AMIGO1 (UniProt Q86WK6)", "T3 sequence": "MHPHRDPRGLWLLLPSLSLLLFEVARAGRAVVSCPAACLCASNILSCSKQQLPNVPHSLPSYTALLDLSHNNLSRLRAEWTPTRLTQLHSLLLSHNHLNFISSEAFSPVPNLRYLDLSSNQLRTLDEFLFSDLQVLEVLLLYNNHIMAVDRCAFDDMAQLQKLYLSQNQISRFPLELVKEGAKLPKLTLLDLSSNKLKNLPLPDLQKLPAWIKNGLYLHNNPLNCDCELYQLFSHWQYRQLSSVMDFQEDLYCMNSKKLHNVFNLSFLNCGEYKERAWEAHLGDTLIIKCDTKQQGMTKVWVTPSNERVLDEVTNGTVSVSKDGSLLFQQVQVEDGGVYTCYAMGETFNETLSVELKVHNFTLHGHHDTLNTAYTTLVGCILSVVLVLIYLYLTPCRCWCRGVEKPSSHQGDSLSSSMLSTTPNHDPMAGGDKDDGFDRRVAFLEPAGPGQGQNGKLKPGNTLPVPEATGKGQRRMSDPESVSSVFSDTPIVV"}, "lrc4c_human LRRC4C": {"target": "T4, lrc4c_human LRRC4C (UniProt Q9HCJ2)", "T4 sequence": "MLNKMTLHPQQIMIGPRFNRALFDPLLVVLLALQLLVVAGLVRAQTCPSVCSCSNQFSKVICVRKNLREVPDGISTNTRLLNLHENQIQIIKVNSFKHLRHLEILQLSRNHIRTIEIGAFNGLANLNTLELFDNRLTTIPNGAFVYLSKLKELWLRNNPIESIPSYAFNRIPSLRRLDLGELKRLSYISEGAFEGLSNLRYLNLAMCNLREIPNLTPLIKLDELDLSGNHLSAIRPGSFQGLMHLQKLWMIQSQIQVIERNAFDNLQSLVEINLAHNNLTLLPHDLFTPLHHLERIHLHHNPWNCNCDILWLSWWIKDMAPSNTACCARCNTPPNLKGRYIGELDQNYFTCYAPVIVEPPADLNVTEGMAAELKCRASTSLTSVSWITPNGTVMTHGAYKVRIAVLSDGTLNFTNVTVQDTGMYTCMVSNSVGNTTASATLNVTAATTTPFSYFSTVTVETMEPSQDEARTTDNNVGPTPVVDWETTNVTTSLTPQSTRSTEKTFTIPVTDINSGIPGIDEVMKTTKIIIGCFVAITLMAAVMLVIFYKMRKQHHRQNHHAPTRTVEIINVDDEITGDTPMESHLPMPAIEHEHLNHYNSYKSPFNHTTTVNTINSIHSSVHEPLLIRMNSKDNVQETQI"}, "comt_human COMT": {"target": "comt_human COMT (UniProt P21964)"}, "tmem9_human TMEM9": {"target": "T5, tmem9_human TMEM9 (UniProt Q9P0T7)", "T5 sequence": "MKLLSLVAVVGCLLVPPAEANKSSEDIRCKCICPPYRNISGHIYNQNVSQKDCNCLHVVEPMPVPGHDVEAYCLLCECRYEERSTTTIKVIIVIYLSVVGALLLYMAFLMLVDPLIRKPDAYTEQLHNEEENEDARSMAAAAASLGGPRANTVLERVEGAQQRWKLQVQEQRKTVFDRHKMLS"}, "cld7_human CLDN7": {"target": "T6, cld7_human CLDN7 (UniProt O95471)", "T6 sequence": "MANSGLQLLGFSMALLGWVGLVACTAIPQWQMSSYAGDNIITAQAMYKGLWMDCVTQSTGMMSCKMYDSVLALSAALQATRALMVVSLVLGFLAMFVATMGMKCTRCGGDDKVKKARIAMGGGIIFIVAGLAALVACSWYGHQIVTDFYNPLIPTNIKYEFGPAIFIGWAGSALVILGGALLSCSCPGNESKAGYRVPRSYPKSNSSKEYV"}, "cxa5_human GJA5": {"target": "cxa5_human GJA5 (UniProt P36382)"}, "cisd2_human CISD2": {"target": "T7, cisd2_human CISD2 (UniProt Q8N5K1)", "T7 sequence": "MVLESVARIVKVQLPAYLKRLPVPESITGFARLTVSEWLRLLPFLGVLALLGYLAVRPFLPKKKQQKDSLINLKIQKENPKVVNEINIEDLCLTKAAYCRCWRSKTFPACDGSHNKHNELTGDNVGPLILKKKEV"}, "tm52b_human TMEM52B": {"target": "tm52b_human TMEM52B (UniProt Q4KMG9)"}, "ssmm1_human SSMEM1": {"target": "T8, ssmm1_human SSMEM1 (UniProt Q8WWF3)", "T8 sequence": "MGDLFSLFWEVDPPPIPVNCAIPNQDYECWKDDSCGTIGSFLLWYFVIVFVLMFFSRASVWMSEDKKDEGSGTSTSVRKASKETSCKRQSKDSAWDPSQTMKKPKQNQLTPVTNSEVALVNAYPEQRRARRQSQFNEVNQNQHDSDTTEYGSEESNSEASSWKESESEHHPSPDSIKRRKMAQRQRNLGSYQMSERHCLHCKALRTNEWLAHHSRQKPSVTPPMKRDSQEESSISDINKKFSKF"}}, "data": [{"substance": "Acyltransferase PGAP2 (Homo sapiens) (from UniProt Q9UHJ9-5) T160I", "values": [{"measurement": "effect of a mutation on the interaction", "setting": "kash5_human KASH5", "value": "disrupting interaction strength"}, {"measurement": "effect of a mutation on the interaction", "setting": "gp152_human GPR152", "value": "with no effect"}, {"measurement": "effect of a mutation on the interaction", "setting": "cxa8_human GJA8", "value": "with no effect"}, {"measurement": "effect of a mutation on the interaction", "setting": "pdz1i_human PDZK1IP1", "value": "with no effect"}, {"measurement": "effect of a mutation on the interaction", "setting": "amgo1_human AMIGO1", "value": "disrupting interaction strength"}, {"measurement": "effect of a mutation on the interaction", "setting": "lrc4c_human LRRC4C", "value": "with no effect"}, {"measurement": "effect of a mutation on the interaction", "setting": "comt_human COMT", "value": "with no effect"}, {"measurement": "effect of a mutation on the interaction", "setting": "tmem9_human TMEM9", "value": "with no effect"}, {"measurement": "effect of a mutation on the interaction", "setting": "cld7_human CLDN7", "value": "disrupting interaction strength"}, {"measurement": "effect of a mutation on the interaction", "setting": "cxa5_human GJA5", "value": "with no effect"}, {"measurement": "effect of a mutation on the interaction", "setting": "cisd2_human CISD2", "value": "with no effect"}, {"measurement": "effect of a mutation on the interaction", "setting": "tm52b_human TMEM52B", "value": "disrupting interaction strength"}, {"measurement": "effect of a mutation on the interaction", "setting": "ssmm1_human SSMEM1", "value": "with no effect"}]}]}
